Test results published in US20260015399A1 (Boehringer Ingelheim, published 2026).
Blank lines part the entries; values can stand above or below the binder they belong to. *1 amine or outer side, *2 acyl side, *3 side chain or, on linkers, in order; H or OH if unused. Side-chain parts run from the residue outwards. The star is where a group is joined. C18 diacid = O=C(O)CCCCCCCCCCCCCCCCC(=O)*; γGlu = O=C(O)[C@H](CCC(=O)[*:2])N[*:1]; Isovaleryl = CC(C)CC(=O)*; Ahx = NCCCCCC(=O)O

How the values were obtained:
[1] = biological target: T1, human NPY2 receptor (human, UniProt P49146 1-381); test: cell-based or functional assay
T1 sequence (looked up): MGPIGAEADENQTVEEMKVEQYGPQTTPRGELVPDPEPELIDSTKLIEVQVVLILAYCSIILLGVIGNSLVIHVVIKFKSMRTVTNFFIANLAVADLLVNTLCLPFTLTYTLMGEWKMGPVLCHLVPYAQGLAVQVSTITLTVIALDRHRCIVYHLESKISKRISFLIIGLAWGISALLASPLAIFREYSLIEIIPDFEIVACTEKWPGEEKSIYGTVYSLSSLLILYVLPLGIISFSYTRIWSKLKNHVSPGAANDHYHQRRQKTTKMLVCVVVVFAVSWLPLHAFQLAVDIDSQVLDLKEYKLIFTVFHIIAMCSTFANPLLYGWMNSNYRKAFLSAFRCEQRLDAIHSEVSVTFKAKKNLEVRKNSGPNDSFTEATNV

[2] = biological target: T2, human NPY1 receptor (human, UniProt P25929 1-384); test: cell-based or functional assay
T2 sequence (looked up): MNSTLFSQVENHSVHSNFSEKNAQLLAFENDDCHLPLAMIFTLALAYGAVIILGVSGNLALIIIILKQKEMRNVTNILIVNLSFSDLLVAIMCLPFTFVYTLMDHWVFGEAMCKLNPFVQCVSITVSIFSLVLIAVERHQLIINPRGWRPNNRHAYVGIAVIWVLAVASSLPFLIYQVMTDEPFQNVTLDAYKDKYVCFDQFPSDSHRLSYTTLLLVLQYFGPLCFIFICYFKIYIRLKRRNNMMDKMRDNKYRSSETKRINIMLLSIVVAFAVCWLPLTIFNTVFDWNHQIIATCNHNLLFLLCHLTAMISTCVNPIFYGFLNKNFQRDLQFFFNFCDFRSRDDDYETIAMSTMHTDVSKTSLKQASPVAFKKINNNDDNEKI

[3] = biological target: human NPY4 receptor (human, UniProt P50391 1-375); test: cell-based or functional assay
human NPY4 receptor, sequence (P50391 whole entry): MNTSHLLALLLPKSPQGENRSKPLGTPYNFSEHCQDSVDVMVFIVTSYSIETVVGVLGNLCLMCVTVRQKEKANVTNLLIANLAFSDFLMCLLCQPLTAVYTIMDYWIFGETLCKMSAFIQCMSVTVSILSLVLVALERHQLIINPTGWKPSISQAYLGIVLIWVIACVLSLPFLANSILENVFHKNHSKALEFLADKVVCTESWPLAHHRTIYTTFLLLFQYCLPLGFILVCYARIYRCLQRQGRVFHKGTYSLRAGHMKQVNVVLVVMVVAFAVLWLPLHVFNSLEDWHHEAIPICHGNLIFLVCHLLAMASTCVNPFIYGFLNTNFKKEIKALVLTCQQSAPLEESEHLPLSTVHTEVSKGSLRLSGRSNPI

[4] = biological target: T3, human NPY5 receptor (human, UniProt Q15761 1-445); test: cell-based or functional assay
T3 sequence (looked up): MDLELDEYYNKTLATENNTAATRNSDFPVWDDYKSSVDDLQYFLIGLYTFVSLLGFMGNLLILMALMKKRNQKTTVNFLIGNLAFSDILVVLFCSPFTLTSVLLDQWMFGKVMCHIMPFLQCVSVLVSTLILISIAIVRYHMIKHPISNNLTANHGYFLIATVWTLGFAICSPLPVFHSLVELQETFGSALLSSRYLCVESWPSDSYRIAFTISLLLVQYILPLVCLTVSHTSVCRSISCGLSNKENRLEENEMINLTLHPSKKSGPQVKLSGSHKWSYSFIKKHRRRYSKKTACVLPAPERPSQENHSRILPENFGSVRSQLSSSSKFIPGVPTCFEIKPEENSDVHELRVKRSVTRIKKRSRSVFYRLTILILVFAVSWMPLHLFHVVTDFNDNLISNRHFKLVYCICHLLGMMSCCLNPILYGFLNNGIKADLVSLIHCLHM

[5] = biological target: T1, human NPY2 receptor; test: RLB: displacement of 125I-PYY(1-36) from hNPY2R membranes

EC50, HTRF cAMP Gi assay [1]: 0.344 nM
EC50, HTRF cAMP Gi assay [2]: > 5000 nM
EC50, HTRF cAMP Gi assay [3]: > 5000 nM
EC50, HTRF cAMP Gi assay [4]: > 5000 nM
Ki [5]: 2.91 nM
B1: Compound 128 (peptide)
peptide: Isovaleryl-APEK([Ahx-γGlu-C18 diacid])PEEAATPEELQRYYVSLRHYYNWLTRQRY-NH2
SMILES: CC(C)CC(=O)N[C@@H](C)C(=O)N1CCC[C@H]1C(=O)N[C@@H](CCC(=O)O)C(=O)N[C@@H](CCCCNC(=O)CCCCCNC(=O)CC[C@H](NC(=O)CCCCCCCCCCCCCCCCC(=O)O)C(=O)O)C(=O)N1CCC[C@H]1C(=O)N[C@@H](CCC(=O)O)C(=O)N[C@@H](CCC(=O)O)C(=O)N[C@@H](C)C(=O)N[C@@H](C)C(=O)N[C@H](C(=O)N1CCC[C@H]1C(=O)N[C@@H](CCC(=O)O)C(=O)N[C@@H](CCC(=O)O)C(=O)N[C@@H](CC(C)C)C(=O)N[C@@H](CCC(N)=O)C(=O)N[C@@H](CCCNC(=N)N)C(=O)N[C@@H](Cc1ccc(O)cc1)C(=O)N[C@@H](Cc1ccc(O)cc1)C(=O)N[C@H](C(=O)N[C@@H](CO)C(=O)N[C@@H](CC(C)C)C(=O)N[C@@H](CCCNC(=N)N)C(=O)N[C@@H](Cc1c[nH]cn1)C(=O)N[C@@H](Cc1ccc(O)cc1)C(=O)N[C@@H](Cc1ccc(O)cc1)C(=O)N[C@@H](CC(N)=O)C(=O)N[C@@H](Cc1c[nH]c2ccccc12)C(=O)N[C@@H](CC(C)C)C(=O)N[C@H](C(=O)N[C@@H](CCCNC(=N)N)C(=O)N[C@@H](CCC(N)=O)C(=O)N[C@@H](CCCNC(=N)N)C(=O)N[C@@H](Cc1ccc(O)cc1)C(N)=O)[C@@H](C)O)C(C)C)[C@@H](C)O

EC50, HTRF cAMP Gi assay [1]: 0.138 nM
EC50, HTRF cAMP Gi assay [2]: > 5000 nM
EC50, HTRF cAMP Gi assay [3]: > 5000 nM
EC50, HTRF cAMP Gi assay [4]: > 5000 nM
Ki [5]: 1.07 nM
B2: Compound 136 (peptide)
peptide: Isovaleryl-APEK([Ahx-γGlu-C18 diacid])PEADATPEELQRYYVALRHYYNWLTRQRY-NH2
SMILES: CC(C)CC(=O)N[C@@H](C)C(=O)N1CCC[C@H]1C(=O)N[C@@H](CCC(=O)O)C(=O)N[C@@H](CCCCNC(=O)CCCCCNC(=O)CC[C@H](NC(=O)CCCCCCCCCCCCCCCCC(=O)O)C(=O)O)C(=O)N1CCC[C@H]1C(=O)N[C@@H](CCC(=O)O)C(=O)N[C@@H](C)C(=O)N[C@@H](CC(=O)O)C(=O)N[C@@H](C)C(=O)N[C@H](C(=O)N1CCC[C@H]1C(=O)N[C@@H](CCC(=O)O)C(=O)N[C@@H](CCC(=O)O)C(=O)N[C@@H](CC(C)C)C(=O)N[C@@H](CCC(N)=O)C(=O)N[C@@H](CCCNC(=N)N)C(=O)N[C@@H](Cc1ccc(O)cc1)C(=O)N[C@@H](Cc1ccc(O)cc1)C(=O)N[C@H](C(=O)N[C@@H](C)C(=O)N[C@@H](CC(C)C)C(=O)N[C@@H](CCCNC(=N)N)C(=O)N[C@@H](Cc1c[nH]cn1)C(=O)N[C@@H](Cc1ccc(O)cc1)C(=O)N[C@@H](Cc1ccc(O)cc1)C(=O)N[C@@H](CC(N)=O)C(=O)N[C@@H](Cc1c[nH]c2ccccc12)C(=O)N[C@@H](CC(C)C)C(=O)N[C@H](C(=O)N[C@@H](CCCNC(=N)N)C(=O)N[C@@H](CCC(N)=O)C(=O)N[C@@H](CCCNC(=N)N)C(=O)N[C@@H](Cc1ccc(O)cc1)C(N)=O)[C@@H](C)O)C(C)C)[C@@H](C)O
